In assay [1] the target is T1, cynomolgus CX3CR1 (cynomolgus monkey (Macaca fascicularis), UniProt P49238 1-355 (human entry)).
T1 construct: Overexpressed on CHO K1 cells; also called cyno CX3CR1; cyCX3CR1
T1 chain: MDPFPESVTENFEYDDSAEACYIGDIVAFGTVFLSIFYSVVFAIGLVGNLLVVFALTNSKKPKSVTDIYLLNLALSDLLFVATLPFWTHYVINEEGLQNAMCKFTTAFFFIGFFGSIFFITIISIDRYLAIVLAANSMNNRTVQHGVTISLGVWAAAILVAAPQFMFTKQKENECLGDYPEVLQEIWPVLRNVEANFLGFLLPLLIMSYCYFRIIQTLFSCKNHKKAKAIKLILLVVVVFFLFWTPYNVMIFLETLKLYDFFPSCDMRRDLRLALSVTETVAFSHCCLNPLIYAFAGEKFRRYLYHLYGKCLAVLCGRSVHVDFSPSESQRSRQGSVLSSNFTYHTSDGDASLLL
The experiment in a line: flow cytometry on CHO K1 cyCX3CR1 cells, 30 uM HSA. Here is the method:
(§1) CHO cells overexpressing human or cynomolgus CX3CR1 were generated using techniques known in the art. Cells were harvested and resuspended in assay buffer (PBS, 2% FBS, 0.05% NaN3) and seeded separately in 384-well Bio-One V-bottom plates (Greiner, Cat. No. 781280), with a total of 2E04 cells seeded per well. After washing, serial dilutions of multivalent ISVD construct (starting from 250 nM, 3-fold dilution, 11 points, diluted in assay buffer), were added and incubated for 4 hours at 4° C. Binding was performed in the presence of 30 uM HSA (Sigma-Aldrich, Cat. No. A8763). Plates were then washed 3 times and cells were incubated with an anti-VHH mouse antibody (3300-fold diluted in assay buffer) for 30 minutes at 4′° C. […] Plates were finally washed 3 times and cells were resuspended in PI (Miltenyi Biotec, Cat. No. 130-093-233, 1000-fold diluted in assay buffer). Cell suspensions were analyzed with iQue Screener PLUS (Intellicyt). EC50s were estimated by dose response modelling. Curves were fit using 4 parameter logistic regression in GraphPad (GraphPad Software Inc.). A purified anti-human CX3CR1 antibody [K0124E1] (BioLegend, Cat. No. 355701/355702) was used as positive control to detect CX3CR1 expression on the cell surface.

In assay [2] the target is T2, human CX3CR1 V249I/T280M (human, UniProt P49238 1-355).
T2 construct: Transiently transfected in HEK293T cells (pcDNA3.1); also called huCX3CR1 variant V249I and T280M
T2 chain: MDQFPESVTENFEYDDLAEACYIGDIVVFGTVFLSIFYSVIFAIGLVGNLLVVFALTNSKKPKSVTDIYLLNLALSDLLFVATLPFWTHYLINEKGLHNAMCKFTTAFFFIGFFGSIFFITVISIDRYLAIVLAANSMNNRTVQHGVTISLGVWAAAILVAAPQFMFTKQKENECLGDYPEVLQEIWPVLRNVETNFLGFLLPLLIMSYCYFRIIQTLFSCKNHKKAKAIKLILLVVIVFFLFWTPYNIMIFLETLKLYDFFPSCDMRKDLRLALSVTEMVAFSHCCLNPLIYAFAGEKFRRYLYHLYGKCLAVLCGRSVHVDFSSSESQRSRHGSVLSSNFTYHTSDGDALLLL
Briefly: flow cytometry on HEK293T cells transiently transfected with human CX3CR1 V249I + T280M; detection with anti-VHH mouse antibody and goat anti-mouse Fc APC, as in Example 5.1. How it is done: Plates were then washed 3 times and cells were incubated with an anti-VHH mouse antibody (3300-fold diluted in assay buffer) for 30 minutes at 4′° C. […] Plates were finally washed 3 times and cells were resuspended in PI (Miltenyi Biotec, Cat. No. 130-093-233, 1000-fold diluted in assay buffer). Cell suspensions were analyzed with iQue Screener PLUS (Intellicyt). EC50s were estimated by dose response modelling. Curves were fit using 4 parameter logistic regression in GraphPad (GraphPad Software Inc.). A purified anti-human CX3CR1 antibody [K0124E1] (BioLegend, Cat. No. 355701/355702) was used as positive control to detect CX3CR1 expression on the cell surface.
Two important SNPs are described in huCX3CR1, i.e. V2491 (Rs3732379) and T280M (Rs3732378), which might influence receptor activity and binding by the ISVD. […] Different combinations of these SNPs were introduced in human CX3CR1, and binding by 5 selected multivalent ISVD constructs was assessed with flow cytometry after transient transfection of the huCX3CR1 variants in HEK293T cells.
In short, the CX3CR1 constructs were cloned into pcDNA3.1 (ThermoFisher Scientific, Cat. No. V79020) and plasmid DNA was prepared from Escherichia coli TOP10 cells. […]
Background: In flow cytometry, cells or beads pass a laser one at a time.

Assay [3] deals with T1, cynomolgus CX3CR1. The experiment in a line: flow cytometry on CHO K1 cells; tied to A041600085 by Table B-4 (5.6E-10 against 1.7E-10). Here is the method:
as §1

For orientation: EC50 means the concentration needed to bring the measured effect to its halfway point.

Positions count from the first letter of the chain named. Names and notes keep the numbering of the source.

B1: A041600035 (VHH)
chain: DVQLVESGGGSVQPGGSLRLSCAASGSIFSSTAMAWYRQAPGKQRDLVAVISTVGITKYADSVKGRFTISRDNAKNTVYLQMNSLRPEDTALYYCTSDARRGWDTRYWGQGTLVTVSSGGGGSGGGSEVQLVESGGGSVQPGGSLRLSCAASGSIFSSTAMAWYRQAPGKQRDLVAVISTVGITKYADSVKGRFTISRDNAKNTVYLQMNSLRPEDTALYYCTSDARRGWDTRYWGQGTLVTVSSGGGGSGGGSEVQLVESGGGVVQPGGSLRLSCAASGFTFRSFGMSWVRQAPGKGPEWVSSISGSGSDTLYADSVKGRFTISRDNSKNTLYLQMNSLRPEDTALYYCTIGGSLSRSSQGTLVTVSSA
notes: Trivalent ISVD construct (two anti-CX3CR1 ISVDs, one anti-albumin ISVD), C-terminal alanine included in the entry; also called 54A12_SO (E1D)-9GS-54A12_SO-9GS-ALB23002-A
In assay [1], B1 displayed an EC50 of 0.24 nM and a top of 411000.

B2: A041600041 (VHH)
chain: B1 chain with Q171R, V177A, S179N, I183V, A226P
notes: Trivalent ISVD construct (two anti-CX3CR1 ISVDs, one anti-albumin ISVD), C-terminal alanine included in the entry; also called 54A12_SO (E1D)-9GS-66B02_SO-9GS-ALB23002-A
In assay [1], B2 came in with an EC50 of 0.15 nM and a top of 346000. The binding result in assay [2] is recorded as “binds”.

B3: A041600025 (VHH)
chain: DVQLVESGGGSVQPGGSLRLSCAASGSIFSSTAMAWYRQAPGKQRDLVAVISTVGITKYADSVKGRFTISRDNAKNTVYLQMNSLRPEDTALYYCTSDARRGWDTRYWGQGTLVTVSSGGGGSGGGSEVQLVESGGGVVQPGGSLRLSCAASGFTFRSFGMSWVRQAPGKGPEWVSSISGSGSDTLYADSVKGRFTISRDNSKNTLYLQMNSLRPEDTALYYCTIGGSLSRSSQGTLVTVSSGGGGSGGGSEVQLVESGGGSVQPGGSLRLSCAASGSIFSSTAMAWYRQAPGKQRDLVAVISTVGITKYADSVKGRFTISRDNAKNTVYLQMNSLRPEDTALYYCTSDARRGWDTRYWGQGTLVTVSSA
notes: Trivalent ISVD construct (two anti-CX3CR1 ISVDs, one anti-albumin ISVD), C-terminal alanine included in the entry; also called 54A12_SO (E1D)-9GS-ALB23002-9GS-54A12_SO-A
In assay [1], B3 yielded an EC50 of 0.36 nM and a top of 266000.

B4: A041600034 (VHH)
chain: B3 chain with Q295R, V301A, S303N, I307V, A350P
notes: Trivalent ISVD construct; also called 54A12_SO (E1D)-9GS-ALB23002-9GS-66B02_SO-A
In assay [1], B4 had a concentration for a half-maximal effect (EC50) of 0.45 nM and a top of 273000.

B5: A041600085 (VHH)
chain: DVQLVESGGGLVQPGGSLRLSCAASGSIFSSTAMAWYRQAPGKRRDLVAAISTVGVTKYADSVKGRFTISRDNSKNTVYLQMNSLRPEDTAVYYCTSDPRRGWDTRYWGQGTLVTVSSGGGGSGGGSEVQLVESGGGVVQPGGSLRLSCAASGFTFRSFGMSWVRQAPGKGPEWVSSISGSGSDTLYADSVKGRFTISRDNSKNTLYLQMNSLRPEDTALYYCTIGGSLSRSSQGTLVTVSSGGGGSGGGSEVQLVESGGGLVQPGGSLRLSCAASGSIFSSTAMAWYRQAPGKRRDLVAAISTVGVTKYADSVKGRFTISRDNSKNTVYLQMNSLRPEDTAVYYCTSDPRRGWDTRYWGQGTLVTVSSA
notes: also called 307-9GS-ALB23002-9GS-307 (D1E)-A
For B5, in assay [1], the midpoint of the response, the EC50, lay at 0.56 nM and the top came to 186000. For the same molecule, the binding result in assay [2] is “binds”. Moreover, the “fold difference in EC50 (cyno CX3CR1 against human CX3CR1)” value in assay [3] is 3.3 fold.
